This note sets out measurements from patent US20150344570A1 (published 2015).

Experiment [1] concerns the target T1, FcγRIIIa (human, UniProt P08637 17-208).
T1 construct: extracellular domain; also called FcgRIIIa; CD16A; not shown: His tag attached to the C terminus
Briefly: ratio of SPR KDs: KD of GpH7-A5/GpH7-B3/GpL16-k0 divided by KD of this antibody. The procedure:
The prepared antibodies were compared for the FcγRIIIa-binding activity using, as an indicator, KD for FcγRIIIa that was determined according to the method described in Reference Example 2.
(§1) Analysis of interaction between objective antibody and the FcγR was carried out using Biacore T100 (GE Healthcare). HBS-EP+ (GE Healthcare) was used as the running buffer, and the measurement temperature was set to 25° C. Chips produced by immobilizing the antigen peptide by the amine coupling method to a Series S Sencor Chip CM5 (GE Healthcare), or alternatively, chips produced by allowing preliminarily biotinylated antigen peptides to interact with and immobilize onto a Series S Sensor Chip SA (certified) (GE Healthcare) were used. Antibodies of interest were captured onto an antigen peptide-immobilized chip, and allowed to interact to each FcγR diluted with running buffer. To regenerate and repeatedly use the chip, the antibodies captured on the chip were washed off by reacting 10 mM glycine-HCl, pH 1.5.
(§2) Specifically, to calculate association rate constant ka (L/mol/s) and dissociation rate constant kd (1/s), sensorgrams obtained by measurement were processed for global fitting by Biacore Evaluation Software using 1:1 Langmuir binding model and dissociation constant KD (mol/1) was calculated from the resulting values.

Experiment [2] deals with T1, FcγRIIIa. Briefly: ratio of SPR KDs: KD of GpH7-A5/GpH7-B78/GpL16-k0 divided by KD of this antibody. The procedure: To assess this hypothesis, GpH7-A53 (SEQ ID NO: 42) resulting from the introduction of S239D into GpH7-A5 was constructed, and, this is combined with GpH7-B78 introduced with S239D, A330L, and I332E, and the expression and preparation were performed according to the method described in Reference Example 1. The effect of the combination of S239D and S239D, A330L, and I332E was assessed by comparing the FcγRIIIa binding between the heterodimerized and homodimerized antibodies with S239D, A330L, and I332E according to the method described in Reference Example 2 (Table 14).
as §1, §2

For experiment [3], the target named is T1, FcγRIIIa. As to the kind of experiment: ratio of SPR KDs: KD of GpH7-G1d/GpL16-k0 divided by KD of this antibody. The gist of the method:
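Biacore SPR at 25 °C in HBS-EP+; antibodies captured on antigen peptide-immobilized CM5 or SA chips, FcγRIIIa flowed as analyte, regeneration with 10 mM glycine-HCl pH 1.5. KD from ka and kd by global 1:1 Langmuir fitting; values are the reference antibody's KD divided by this antibody's KD.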

Experiment [4] has as its target T1, FcγRIIIa. Briefly: ratio of SPR KDs: KD of GpH7-TA7/GpH7-B78/GpL16-k0 divided by KD of this antibody.
Source text: First, it was considered which H chain should be introduced with Y296W. GpH7-TA52 (SEQ ID NO: 44) resulting from the introduction of the mutation Y296W into GpH7-TA7 was constructed, and expressed and prepared in combination with GpH7-B78 according to the method described in Reference Example 1. Furthermore, GpH7-TA58 (SEQ ID NO: 45) resulting from the introduction of Y296W into GpH7-B78 was constructed, and expressed and prepared in combination with GpH7-TA22 according to the method described in Reference Example 1. To assess the effects of combinations with Y296W, the prepared antibodies were compared for the FcγRIIIa-binding activity according to the method described in Reference Example 2 (Table 16).
as §1

T1 sequence (P08637 17-208): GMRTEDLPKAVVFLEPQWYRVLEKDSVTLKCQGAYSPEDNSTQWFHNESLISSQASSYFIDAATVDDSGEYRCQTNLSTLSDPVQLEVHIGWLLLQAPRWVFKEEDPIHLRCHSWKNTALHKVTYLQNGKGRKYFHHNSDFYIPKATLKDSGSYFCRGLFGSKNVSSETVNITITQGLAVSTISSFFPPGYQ

B1: GpH7-A5/GpH7-B78/GpL16-k0 (antibody, human IgG1, kappa)
heavy 1: not shown
heavy 2: QVQLVQSGAEVKKPGASVTVSCKASGYTFTDYEMHWIRQPPGEGLEWIGAIDPKTGDTAYSESFQDRVTLTADKSTSTAYMELSSLTSEDTAVYYCTRFYSYTYWGQGTLVTVSSASTKGPSVFPLAPSSKSTSGGTAALGCLVKDYFPEPVTVSWNSGALTSGVHTFPAVLQSSGLYSLSSVVTVPSSSLGTQTYICNVNHKPSNTKVDKKVEPKSCDKTHTCPPCPAPELLGGPDVFLFPPKPKDTLMISRTPEVTCVVVDVSHEDPEVKFNWYVDGVEVHNAKTKPREEQYNSTYRVVSVLTVLHQDWLNGKEYKCKVSNKALPLPEEKTISKAKGQPREPQVYTLPPSRDELTKNQVSLTCLVKGFYPSDIAVEWESNGQPENNYKTTPPVLDSDGSFFLYSKLTVDKSRWQQGNVFSCSVMHEALHNHYTQESLSLSP
light: DIVMTQSPLSLPVTPGEPASISCQASESLVHSNRNTYLHWYLQKPGQSPQLLIYKVSNRFSGVPDRFSGSGSGTDFTLKISRVEAEDVGVYYCSQNTHVPPTFGQGTKVEIERTVAAPSVFIFPPSDEQLKSGTASVVCLLNNFYPREAKVQWKVDNALQSGNSQESVTEQDSKDSTYSLSSTLTLSKADYEKHKVYACEVTHQGLSSPVTKSFNRGEC
notes: Anti-glypican-3 IgG1 heterodimer; S239D/A330L/I332E in H2 only
As to B1, the “KD ratio 2” value with FcγRIIIa [1] came out at 30 fold. The KD ratio with FcγRIIIa [2] came out at 1 fold. Besides, the “KD ratio 1” value in the experiment with FcγRIIIa [3] is 23 fold.

B2: GpH7-A53/GpH7-B78/GpL16-k0 (antibody, human IgG1, kappa)
heavy 1: QVQLVQSGAEVKKPGASVTVSCKASGYTFTDYEMHWIRQPPGEGLEWIGAIDPKTGDTAYSESFQDRVTLTADKSTSTAYMELSSLTSEDTAVYYCTRFYSYTYWGQGTLVTVSSASTKGPSVFPLAPSSKSTSGGTAALGCLVKDYFPEPVTVSWNSGALTSGVHTFPAVLQSSGLYSLSSVVTVPSSSLGTQTYICNVNHKPSNTKVDKKVEPKSCDKTHTCPPCPAPELLGGPDVFLFPPKPKDTLMISRTPEVTCVVVDVSHEDPEVKFNWYVDGVEVHNAKTKPREEQYNSTYRVVSVLTVLHQDWLNGKEYKCKVSNKALPAPIEKTISKAKGQPREPQVYTLPPSRKELTKNQVSLTCLVKGFYPSDIAVEWESNGQPENNYKTTPPVLDSDGSFFLYSKLTVDKSRWQQGNVFSCSVMHEALHNRYTQKSLSLSP
heavy 2: QVQLVQSGAEVKKPGASVTVSCKASGYTFTDYEMHWIRQPPGEGLEWIGAIDPKTGDTAYSESFQDRVTLTADKSTSTAYMELSSLTSEDTAVYYCTRFYSYTYWGQGTLVTVSSASTKGPSVFPLAPSSKSTSGGTAALGCLVKDYFPEPVTVSWNSGALTSGVHTFPAVLQSSGLYSLSSVVTVPSSSLGTQTYICNVNHKPSNTKVDKKVEPKSCDKTHTCPPCPAPELLGGPDVFLFPPKPKDTLMISRTPEVTCVVVDVSHEDPEVKFNWYVDGVEVHNAKTKPREEQYNSTYRVVSVLTVLHQDWLNGKEYKCKVSNKALPLPEEKTISKAKGQPREPQVYTLPPSRDELTKNQVSLTCLVKGFYPSDIAVEWESNGQPENNYKTTPPVLDSDGSFFLYSKLTVDKSRWQQGNVFSCSVMHEALHNHYTQESLSLSP
light: DIVMTQSPLSLPVTPGEPASISCQASESLVHSNRNTYLHWYLQKPGQSPQLLIYKVSNRFSGVPDRFSGSGSGTDFTLKISRVEAEDVGVYYCSQNTHVPPTFGQGTKVEIERTVAAPSVFIFPPSDEQLKSGTASVVCLLNNFYPREAKVQWKVDNALQSGNSQESVTEQDSKDSTYSLSSTLTLSKADYEKHKVYACEVTHQGLSSPVTKSFNRGEC
notes: Anti-glypican-3 IgG1 heterodimer; S239D in H1, S239D/A330L/I332E in H2
Take B2: in the experiment with FcγRIIIa [2], the KD ratio was 4.9 fold.

B3: GpH7-TA7/GpH7-TA58/GpL16-k0 (antibody, human IgG1, kappa)
heavy 1: QVQLVQSGAEVKKPGASVTVSCKASGYTFTDYEMHWIRQPPGEGLEWIGAIDPKTGDTAYSESFQDRVTLTADKSTSTAYMELSSLTSEDTAVYYCTRFYSYTYWGQGTLVTVSSASTKGPSVFPLAPSSKSTSGGTAALGCLVKDYFPEPVTVSWNSGALTSGVHTFPAVLQSSGLYSLSSVVTVPSSSLGTQTYICNVNHKPSNTKVDKKVEPKSCDKTHTCPPCPAPEYLWGPSVFLFPPKPKDTLMISRTPEVTCVVVDVSHEDPEVKFNWYVDGVEVHNAKTKPREEQYNATYRVVSVLTVLHQDWLNGKEYKCKVSNKALPAPIEKTISKAKGQPREPQVYTLPPSRKELTKNQVSLTCLVKGFYPSDIAVEWESNGQPENNYKTTPPVLDSDGSFFLYSKLTVDKSRWQQGNVFSCSVMHEALHNRYTQKSLSLSP
heavy 2: QVQLVQSGAEVKKPGASVTVSCKASGYTFTDYEMHWIRQPPGEGLEWIGAIDPKTGDTAYSESFQDRVTLTADKSTSTAYMELSSLTSEDTAVYYCTRFYSYTYWGQGTLVTVSSASTKGPSVFPLAPSSKSTSGGTAALGCLVKDYFPEPVTVSWNSGALTSGVHTFPAVLQSSGLYSLSSVVTVPSSSLGTQTYICNVNHKPSNTKVDKKVEPKSCDKTHTCPPCPAPELLGGPDVFLFPPKPKDTLMISRTPEVTCVVVDVSHEDPEVKFNWYVDGVEVHNAKTKPREEQWNSTYRVVSVLTVLHQDWLNGKEYKCKVSNKALPLPEEKTISKAKGQPREPQVYTLPPSRDELTKNQVSLTCLVKGFYPSDIAVEWESNGQPENNYKTTPPVLDSDGSFFLYSKLTVDKSRWQQGNVFSCSVMHEALHNHYTQESLSLSP
light: DIVMTQSPLSLPVTPGEPASISCQASESLVHSNRNTYLHWYLQKPGQSPQLLIYKVSNRFSGVPDRFSGSGSGTDFTLKISRVEAEDVGVYYCSQNTHVPPTFGQGTKVEIERTVAAPSVFIFPPSDEQLKSGTASVVCLLNNFYPREAKVQWKVDNALQSGNSQESVTEQDSKDSTYSLSSTLTLSKADYEKHKVYACEVTHQGLSSPVTKSFNRGEC
notes: Anti-glypican-3 IgG1 heterodimer; L234Y/G236W/S298A in H1, S239D/A330L/I332E/Y296W in H2
Take B3: in the experiment with FcγRIIIa [4], the KD ratio was found to be 1.2 fold.

B4: GpH7-A57/GpH7-B78/GpL16-k0 (antibody, human IgG1, kappa)
heavy 1: QVQLVQSGAEVKKPGASVTVSCKASGYTFTDYEMHWIRQPPGEGLEWIGAIDPKTGDTAYSESFQDRVTLTADKSTSTAYMELSSLTSEDTAVYYCTRFYSYTYWGQGTLVTVSSASTKGPSVFPLAPSSKSTSGGTAALGCLVKDYFPEPVTVSWNSGALTSGVHTFPAVLQSSGLYSLSSVVTVPSSSLGTQTYICNVNHKPSNTKVDKKVEPKSCDKTHTCPPCPAPELLGGPDVFLFPPKPKDTLMISRTPEVTCVVVDVSHEDPEVKFNWYVDGVEVHNAKTKPREEQYNSTYRVVSVLTVLHQDWLNGKEYKCKVSNKALPLPEEKTISKAKGQPREPQVYTLPPSRKELTKNQVSLTCLVKGFYPSDIAVEWESNGQPENNYKTTPPVLDSDGSFFLYSKLTVDKSRWQQGNVFSCSVMHEALHNRYTQKSLSLSP
heavy 2: QVQLVQSGAEVKKPGASVTVSCKASGYTFTDYEMHWIRQPPGEGLEWIGAIDPKTGDTAYSESFQDRVTLTADKSTSTAYMELSSLTSEDTAVYYCTRFYSYTYWGQGTLVTVSSASTKGPSVFPLAPSSKSTSGGTAALGCLVKDYFPEPVTVSWNSGALTSGVHTFPAVLQSSGLYSLSSVVTVPSSSLGTQTYICNVNHKPSNTKVDKKVEPKSCDKTHTCPPCPAPELLGGPDVFLFPPKPKDTLMISRTPEVTCVVVDVSHEDPEVKFNWYVDGVEVHNAKTKPREEQYNSTYRVVSVLTVLHQDWLNGKEYKCKVSNKALPLPEEKTISKAKGQPREPQVYTLPPSRDELTKNQVSLTCLVKGFYPSDIAVEWESNGQPENNYKTTPPVLDSDGSFFLYSKLTVDKSRWQQGNVFSCSVMHEALHNHYTQESLSLSP
light: DIVMTQSPLSLPVTPGEPASISCQASESLVHSNRNTYLHWYLQKPGQSPQLLIYKVSNRFSGVPDRFSGSGSGTDFTLKISRVEAEDVGVYYCSQNTHVPPTFGQGTKVEIERTVAAPSVFIFPPSDEQLKSGTASVVCLLNNFYPREAKVQWKVDNALQSGNSQESVTEQDSKDSTYSLSSTLTLSKADYEKHKVYACEVTHQGLSSPVTKSFNRGEC
notes: Anti-glypican-3 IgG1; The two chains differ only in D356K/H435R and K439E
B4: in the experiment with FcγRIIIa [1], the “KD ratio 2” value was determined as 263 fold. In addition, the KD ratio with FcγRIIIa [2] was 8.7 fold. Besides, in the experiment with FcγRIIIa [3], the “KD ratio 1” value came out at 199 fold.
